Here are results for 19 variants from the RNAGym collection of RNA variant scans (doi:10.1073/pnas.2313332121).

Fewer inactive variants are shown than the library holds.

To fix the notation:
B1: TPR 5TU (parent)
chain: GGAUCUUCUCGAUCUAACAAAAAAGACAAAUCUGCCACAAAGCUUGAGAGCAUCUUCGGAUGCAGAGGCGGCAGCCUUCGGUGGCGCGAUAGCGCCAACGUUCUCAACUAUGACACGCAAAACGCGUGCUCCGUUGAAUGGAGUUUAUCAUG

Variants of B1 are the subject of this series. As to the kind of experiment: polymerase ribozyme fitness, log enrichment relative to wild type (log ratio); higher = more active; in vitro selection for triplet polymerase activity. Summed up: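 Fitness compares each genotype's enrichment to that of the wild type on a logarithmic scale, averaging replicates with inverse-variance weights. The logarithm is base 2. Enrichment came from Illumina sequencing of input and output libraries after one triplicate round of in vitro selection, which included frozen incubation at −7 °C, of PCR-built, transcribed mutant libraries of each subunit of a heterodimeric triplet polymerase ribozyme. Only genotypes with ≥10 input reads and ≥1 read per output were kept.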
As to GGAUCUUCUCGAUCUAACAAAAAAGACAAAUCUGCCACAAAGCUUGAGAGCAUCUUCGGAUGCAGAGGCGGCAGCCUUCGGGGGCUCGAUAGCGCCAACGUUCUCAACUAUGACACGCAAAACGCGUGCUCCGUUGAAUGGAGUUUAUCAUG [U82G G86U], the “polymerase ribozyme fitness (log ratio)” value was -1.46.

Regarding GGAUCUUCUCGAUCUAACAAAAAAGACAAAUCUGCCACAAAGCUUGAGAGCAUCUUCGGAUGCAGAGGCGGCAGCCUUCGGGGGCACGAUAGCGCCAACGUUCUCAACUAUGACACGCAAAACGCGUGCUCCGUUGAAUGGAGUUUAUCAUG [U82G G86A], the “polymerase ribozyme fitness (log ratio)” value was -0.594.

As for GGAUCUUCUCGAUCUAACAAAAAAGACAAAUCUGCCACAAAGCUUGAGAGCAUCUUCGGAUGCAGAGGCGGCAGCCUUCGGGGGCGCGAUAGCGCCAACGUUCCCAACUAUGACAUGCAAAACGUGUGCUCCGUUGACUGGAGUUUAUCAUG [U82G U104C C116U C125U A138C], the “polymerase ribozyme fitness (log ratio)” value was not above -4.2.

With GGAUCUUCUCGAUCUAACAAAAAAGACAAAUCUGCCACAAAGCUUGAGAGCAUCUUCGGAUGCAGAGGCGGCAGCCUUCGGUAGCGCGAUUGCGCCAACUUUCUCAACUAUGACACGCAAAACGCGUGCUCCGUUGAAUGGAGUUUAUCAUG [G83A A91U G100U], the “polymerase ribozyme fitness (log ratio)” value was not above -4.2.

With GGAUCUUCUCGAUCUAACAAAAAAGACAAAUCUGCCACAAAGCUUGAGAGCAUCUUCGGAUGCAGAGGCGGCAGCCUUCGGGGGCGCGAUAGCGCCAACUUUCUCAACUAUGACACGCAAAACGCGUACUCCGUUGAAUGGAGUUUAUCAUG [U82G G100U G128A], the “polymerase ribozyme fitness (log ratio)” value was not above -4.2.

For the variant GGAUCUUCUCGAUCUAACAAAAAAGACAAAUCUGCCACAAAGCUUGAGAGCAUCUUCGGAUGCAGAGGCGGCAGCCUUCGGGGUCGCGAUAGCGCCAAUGUUCUCAACUAUGACACGCAAAACGCGUCCUCCGUUGAAUGGAGUUUAUCAUG [U82G G84U C99U G128C], the “polymerase ribozyme fitness (log ratio)” value was not above -4.2.

Regarding GGAUCUUCUCGAUCUAACAAAAAAGACAAAUCUGCCACAAAGCUUGAGAGCAUCUUCGGAUGCAGAGGCGGCAGCCUUCGGUAGCGCGAUAGCGCCAACGUUCUCAACUAUGACACGCAAAACGCGUGCUCCGUUGAAUGGGGUUUAACAUG [G83A A142G U148A], the “polymerase ribozyme fitness (log ratio)” value was -4.11.

In the case of GGAUCUUCUCGAUCUAACAAAAAAGACAAAUCUGCCACAAAGCUUGAGAGCAUCUUCGGAUGCAGAGGCGGCAGCCUUCGGUAGCGCGAUAGCGCCAUCGUUCUCAACUAUGACACGCAAAACGCGUGCUCCGUUGAAUGGAGUUUAUCAUG [G83A A98U], the “polymerase ribozyme fitness (log ratio)” value was -0.299.

For the variant GGAUCUUCUCGAUCUAACAAAAAAGACAAAUCUGCCACAAAGCUUGAGAGCAUCUUCGGAUGCAGAGGCGGCAGCCUUCGGGGGCGCGAUAGCGCGAACGUUCUCAACUAUGACACGUAAAACGCGUGCUCCGUUGAAUGAAGUUUUUCAUG [U82G C96G C118U G141A A147U], the “polymerase ribozyme fitness (log ratio)” value was -1.93.

For GGAUCUUCUCGAUCUAACAAAAAAGACAAAUCUGCCACAAAGCUUGAGAGCAUCUUCGGAUGCAGAGGCGGCAGCCUUCGGGGGCGCGAUAGCGCCAACGUUCUCAACUAUGACACGCAAAACGCGUGCUCCGUUGAAUGUAGUUUAUCAUG [U82G G141U], the “polymerase ribozyme fitness (log ratio)” value came to 1.45.

For the variant GGAUCUUCUCGAUCUAACAAAAAAGACAAAUCUGCCACAAAGCUUGAGAGCAUCUUCGGAUGCAGAGGCGGCAGCCUUCGGUAGCGCGAUAGCGCCAACGUUCUCAACUAUGACCCGCAAAUCGCGUGCUCCGAUGAAUGGAGUUUAUCAUG [G83A A115C A122U U134A], the “polymerase ribozyme fitness (log ratio)” value is -3.03.

Take GGAUCUUCUCGAUCUAACAAAAAAGACAAAUCUGCCACAAAGCUUGAGAGCAUCUUCGGAUGCAGAGGCGGCAGCCUUCGGGGGCGCGAUAGCGCCAACGGUCUCAACUAUGACACGCAAAACGCGUGCUCCGUUGAAUGGAGUUUAUCAUG [U82G U101G]: the “polymerase ribozyme fitness (log ratio)” value worked out at 0.433.

With GGAUCUUCUCGAUCUAACAAAAAAGACAAAUCUGCCACAAAGCUUGAGAGCAUCUUCGGAUGCAGAGGCGGCAGCCUUCGGGGGCACGAUAGCGCAAACGUUCUCAACUAUGACACGCAAAACGCGUGCUCCGUUGAAUGGAGUUUAUCAUG [U82G G86A C96A], the “polymerase ribozyme fitness (log ratio)” value was -2.04.

For GGAUCUUCUCGAUCUAACAAAAAAGACAAAUCUGCCACAAAGCUUGAGAGCAUCUUCGGAUGCAGAGGCGGCAGCCUUCGGUAGCGCGAUAGCGCCCACGUUCACAACUAUGACACGCAAAACGCGUGCUCCGUUAAAUGGAGUUUAUCAUG [G83A A97C U104A G136A], the “polymerase ribozyme fitness (log ratio)” value is -1.39.

As for GGAUCUUCUCGAUCUAACAAAAAAGACAAAUCUGCCACAAAGCUUGAGAGCAUCUUCGGAUGCAGAGGCGGCAGCCUUCGGUAGCGCGAUAGCGCCUACGUUCUCAACUAUGACACGCAAAACGCGUGCUCCGUUGAAUGGAGUUUAUCAUG [G83A A97U], the “polymerase ribozyme fitness (log ratio)” value was 0.538.

For the variant GGAUCUUCUCGAUCUAACAAAAAAGACAAAUCUGCCACAAAGCUUGAGAGCAUCUUCGGAUGCAGAGGCGGCAGCCUUCGGUAGCGCGAUAGCGCCGACGUUCUCAACUAUGACACGCAAAACGCGUGCUCCGUUGAAUGGAGUUUAUCAUG [G83A A97G], the “polymerase ribozyme fitness (log ratio)” value is -0.594.

Consider GGAUCUUCUCGAUCUAACAAAAAAGACAAAUCUGCCACAAAGCUUGAGAGCAUCUUCGGAUGCAGAGGCGGCAGCCUUCGGUAGCGCGAUAGCGCCAACGUUCUCAACUAUGACGCGCAAAACGCGUGCUCCGUUGAAUGGAGUUUAUCAUG [G83A A115G], for which the “polymerase ribozyme fitness (log ratio)” value is -1.64.

In the case of GGAUCUUCUCGAUCUAACAAAAAAGACAAAUCUGCCACAAAGCUUGAGAGCAUCUUCGGAUGCAGAGGCGGCAGCCUUCGGGGGCGCGAUAGCGCCAACGUUCUCAACUAUGACACGGAAAACGCGUGCUCCGUUGAAUGGAGUUUAUCAUG [U82G C118G], the “polymerase ribozyme fitness (log ratio)” value is -1.09.

As for GGAUCUUCUCGAUCUAACAAAAAAGACAAAUCUGCCACAAAGCUUGAGAGCAUCUUCGGAUGCAGAGGCGGCAGCCUUCGGGGGCACGAUAGCGCCAACGUUCUCAACUAUGACACGCAGAACGCGUGCUCCGUUGAAUGGAGUUUAUCAUG [U82G G86A A120G], the “polymerase ribozyme fitness (log ratio)” value is -1.53.
